Measured values: PMC9044407 (Protein Science : A Publication of the Protein Society, 2022)
Where two headings read alike, the source gives them in different places. Blank lines part the entries; values can stand above or below the binder they belong to.

Tests used:
Suv3 [1] = target: T1, Suv3 (human, UniProt Q8IYB8 48-786); assay: fluorescence polarization
T1 sequence: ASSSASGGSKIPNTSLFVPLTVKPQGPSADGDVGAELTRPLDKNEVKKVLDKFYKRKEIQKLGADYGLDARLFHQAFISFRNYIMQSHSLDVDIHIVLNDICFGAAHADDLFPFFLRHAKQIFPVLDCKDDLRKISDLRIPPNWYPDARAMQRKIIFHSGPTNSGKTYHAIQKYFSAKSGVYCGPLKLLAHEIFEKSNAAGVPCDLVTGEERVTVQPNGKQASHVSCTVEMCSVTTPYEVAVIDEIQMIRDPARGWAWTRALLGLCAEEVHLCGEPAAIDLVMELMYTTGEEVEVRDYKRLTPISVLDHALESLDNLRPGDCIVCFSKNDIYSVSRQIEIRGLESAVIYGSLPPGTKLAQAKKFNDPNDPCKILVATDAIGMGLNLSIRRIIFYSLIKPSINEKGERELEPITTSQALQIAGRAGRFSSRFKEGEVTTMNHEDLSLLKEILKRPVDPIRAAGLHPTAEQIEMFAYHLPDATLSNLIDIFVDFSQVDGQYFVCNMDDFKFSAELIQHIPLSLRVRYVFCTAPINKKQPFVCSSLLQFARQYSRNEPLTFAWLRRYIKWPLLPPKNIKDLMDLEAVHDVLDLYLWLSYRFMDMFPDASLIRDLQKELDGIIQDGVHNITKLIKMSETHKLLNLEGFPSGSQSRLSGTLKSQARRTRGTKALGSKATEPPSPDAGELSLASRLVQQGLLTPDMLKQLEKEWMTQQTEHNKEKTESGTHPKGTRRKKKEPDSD

Suv3ΔC = target: T2, Suv3ΔC (human, UniProt Q8IYB8 48-722, del723-786); assay: fluorescence polarization
T2 sequence: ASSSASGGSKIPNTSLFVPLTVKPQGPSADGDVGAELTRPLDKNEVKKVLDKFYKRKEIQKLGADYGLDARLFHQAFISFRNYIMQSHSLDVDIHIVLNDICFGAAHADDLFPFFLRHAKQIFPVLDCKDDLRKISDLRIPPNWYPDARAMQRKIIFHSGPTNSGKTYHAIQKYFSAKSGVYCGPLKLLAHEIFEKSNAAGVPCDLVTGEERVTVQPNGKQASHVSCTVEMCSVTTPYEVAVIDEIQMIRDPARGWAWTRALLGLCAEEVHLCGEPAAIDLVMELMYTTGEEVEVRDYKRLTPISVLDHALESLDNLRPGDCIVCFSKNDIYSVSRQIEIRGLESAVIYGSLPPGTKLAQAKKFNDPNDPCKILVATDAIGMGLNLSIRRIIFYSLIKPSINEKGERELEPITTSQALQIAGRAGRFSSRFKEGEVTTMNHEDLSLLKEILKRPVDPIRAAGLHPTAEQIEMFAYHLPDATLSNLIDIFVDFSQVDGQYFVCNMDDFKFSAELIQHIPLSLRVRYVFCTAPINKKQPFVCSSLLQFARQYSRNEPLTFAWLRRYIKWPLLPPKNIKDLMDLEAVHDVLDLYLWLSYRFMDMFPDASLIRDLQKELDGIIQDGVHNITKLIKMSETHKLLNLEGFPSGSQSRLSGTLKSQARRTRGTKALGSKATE

Suv3 [2] = target: T1, Suv3; assay: fluorescence polarization; remark: listed apart in the source
Suv3 [3] = target: T1, Suv3; assay: fluorescence polarization; remark: listed apart in the source
Suv3 [4] = target: T1, Suv3; assay: fluorescence polarization; remark: listed apart in the source
Suv3 [5] = target: T1, Suv3; assay: fluorescence polarization; remark: listed apart in the source
Suv3 [6] = target: T1, Suv3; assay: fluorescence polarization; remark: listed apart in the source
[7] = target: T3, human Suv3 (residues 48–786), N-terminal His-tagged (human, UniProt Q8IYB8 48-786); assay: SEC
T3 sequence (looked up): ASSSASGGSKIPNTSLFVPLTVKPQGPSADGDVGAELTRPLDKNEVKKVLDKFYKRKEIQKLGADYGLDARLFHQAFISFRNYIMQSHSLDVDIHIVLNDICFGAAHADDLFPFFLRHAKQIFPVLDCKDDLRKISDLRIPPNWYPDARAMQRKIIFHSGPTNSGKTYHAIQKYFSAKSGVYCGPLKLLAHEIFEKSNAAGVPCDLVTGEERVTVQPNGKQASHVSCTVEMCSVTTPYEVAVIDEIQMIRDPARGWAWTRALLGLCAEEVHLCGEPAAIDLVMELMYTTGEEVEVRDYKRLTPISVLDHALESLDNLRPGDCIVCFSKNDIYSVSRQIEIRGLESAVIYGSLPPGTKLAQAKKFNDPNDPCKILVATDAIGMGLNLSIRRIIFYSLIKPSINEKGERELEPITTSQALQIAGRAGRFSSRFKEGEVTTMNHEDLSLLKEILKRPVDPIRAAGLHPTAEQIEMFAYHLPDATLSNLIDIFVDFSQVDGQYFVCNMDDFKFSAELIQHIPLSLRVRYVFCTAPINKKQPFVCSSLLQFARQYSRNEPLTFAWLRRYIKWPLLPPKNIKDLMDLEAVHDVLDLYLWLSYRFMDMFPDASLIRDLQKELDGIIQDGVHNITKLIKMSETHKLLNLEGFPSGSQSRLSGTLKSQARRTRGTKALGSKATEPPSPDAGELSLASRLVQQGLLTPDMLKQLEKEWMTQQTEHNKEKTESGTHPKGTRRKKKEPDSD

[8] = target: the molecule itself

B1: dsRNA 15-nt 3' overhang (dsRNA)
RNA 1: GGUGUGGUGGCAUACGUGCAGACGC
RNA 2: GCGUCUGCACGUAUGCCACCACACCAGGAGAGGAGAGGAG
Kd (Suv3 [1]): ~18 nM

Binder: GGTGTGGTGGCATACGTGCAGACGC (ssDNA) [ssDNA 25 nt]
Kd (Suv3 [1]): 44 ± 1.7 nM

Binder: GGUGUGGUGGCAUACGUGCAGACGC (ssRNA) [ssRNA 25 nt]
Kd (Suv3 [1]): 53.1 ± 0.7 nM

B2: dsDNA 10-nt 3' overhang (dsDNA)
DNA 1: GGTGTGGTGGCATACGTGCAGACGC
DNA 2: GCGTCTGCACGTATGCCACCACACCAGGAGAGGAG
Kd (Suv3 [1]): 11.5 ± 0.2 nM | Kd (Suv3ΔC): 99 ± 8.6 nM

B3: dsRNA 10-nt 3' overhang (dsRNA)
RNA 1: GGUGUGGUGGCAUACGUGCAGACGC
RNA 2: GCGUCUGCACGUAUGCCACCACACCAGGAGAGGAG
Kd (Suv3 [2]): 32.6 ± 0.6 nM | Kd (Suv3 [1]): 18.7 ± 0.7 nM | Kd (Suv3 [3]): 62.2 ± 2.2 nM | Kd (Suv3 [4]): 19.3 ± 0.5 nM

B4: DNA-RNA hybrid 10-nt 3' overhang (DNA:RNA)
DNA: GGTGTGGTGGCATACGTGCAGACGC
RNA: GCGUCUGCACGUAUGCCACCACACCAGGAGAGGAG
Kd (Suv3 [1]): 13.1 ± 0.4 nM | Kd (Suv3ΔC): 110 ± 9.5 nM

B5: dsDNA 10-nt 5' overhang (dsDNA)
DNA 1: GGTGTGGTGGCATACGTGCAGACGC
DNA 2: GAGGAGAGGAGCGTCTGCACGTATGCCACCACACC
binding signal (Suv3 [5]): 8 fold lower affinity than 3' overhang dsDNA

B6: dsRNA 10-nt 5' overhang (dsRNA)
RNA 1: GGUGUGGUGGCAUACGUGCAGACGC
RNA 2: GAGGAGAGGAGCGUCUGCACGUAUGCCACCACACC
binding result (Suv3 [6]): no binding

B7: DNA-RNA hybrid 10-nt 5' overhang (DNA:RNA)
DNA: GGTGTGGTGGCATACGTGCAGACGC
RNA: GAGGAGAGGAGCGUCUGCACGUAUGCCACCACACC
binding signal (Suv3 [5]): 23 fold lower affinity than 3' overhang DNA-RNA hybrid

B8: blunt-end DNA-RNA hybrid (DNA:RNA)
DNA: GGTGTGGTGGCATACGTGCAGACGC
RNA: GCGUCUGCACGUAUGCCACCACACC
Kd (Suv3 [1]): 103 ± 5.9 nM

B9: blunt-end dsRNA (dsRNA)
RNA 1: GGUGUGGUGGCAUACGUGCAGACGC
RNA 2: GCGUCUGCACGUAUGCCACCACACC
binding result (Suv3 [6]): no binding

B10: dsRNA 5-nt 3' overhang (dsRNA)
RNA 1: GGUGUGGUGGCAUACGUGCAGACGC
RNA 2: GCGUCUGCACGUAUGCCACCACACCAGGAG
Kd (Suv3 [1]): ~65 nM

binding result [7]: binds
B11: human PNPase (residues 46–783), C-terminal His-tagged (enzyme, UniProt Q8TCS8 46-783, looked up)
chain: AVAVDLGNRKLEISSGKLARFADGSAVVQSGDTAVMVTAVSKTKPSPSQFMPLVVDYRQKAAAAGRIPTNYLRREIGTSDKEILTSRIIDRSIRPLFPAGYFYDTQVLCNLLAVDGVNEPDVLAINGASVALSLSDIPWNGPVGAVRIGIIDGEYVVNPTRKEMSSSTLNLVVAGAPKSQIVMLEASAENILQQDFCHAIKVGVKYTQQIIQGIQQLVKETGVTKRTPQKLFTPSPEIVKYTHKLAMERLYAVFTDYEHDKVSRDEAVNKIRLDTEEQLKEKFPEADPYEIIESFNVVAKEVFRSIVLNEYKRCDGRDLTSLRNVSCEVDMFKTLHGSALFQRGQTQVLCTVTFDSLESGIKSDQVITAINGIKDKNFMLHYEFPPYATNEIGKVTGLNRRELGHGALAEKALYPVIPRDFPFTIRVTSEVLESNGSSSMASACGGSLALMDSGVPISSAVAGVAIGLVTKTDPEKGEIEDYRLLTDILGIEDYNGDMDFKIAGTNKGITALQADIKLPGIPIKIVMEAIQQASVAKKEILQIMNKTISKPRASRKENGPVVETVQVPLSKRAKFVGPGGYNLKKLQAETGVTISQVDEETFSVFAPTPSAMHEARDFITEICKDDQEQQLEFGAVYTATITEIRDTGVMVKLYPNMTAVLLHNTQLDQRKIKHPTALGLEVGQEIQVKYFGRDPADGRMRLSRKVLQSPATTVVRTLNDRSSIVMGEPISQSSSNSQ
stoichiometry N [8]: 3

B12: blunt-end dsDNA (dsDNA)
DNA 1: GGTGTGGTGGCATACGTGCAGACGC
DNA 2: GCGTCTGCACGTATGCCACCACACC
Kd (Suv3 [1]): 63.9 ± 1.5 nM

B13: dsRNA 20-nt 3' overhang (dsRNA)
RNA 1: GGUGUGGUGGCAUACGUGCAGACGC
RNA 2: GCGUCUGCACGUAUGCCACCACACCAGGAGAGGAGAGGAGAGGAG
Kd (Suv3 [1]): ~18 nM
